Data: the supplement of paper PMC11246515
± gives the standard deviation of the averaged measurements.

Assay: total protein half-life in vivo (active degradation + dilution); higher = more stable protein
[1] = E. coli NCM3722 delta-clpP delta-lon delta-hslV, growth: N-lim chemostat, doubling time 6 h
[2] = E. coli NCM3722 delta-hslV, growth: N-lim chemostat, doubling time 6 h
[3] = E. coli NCM3722 delta-lon, growth: N-lim chemostat, doubling time 6 h
[4] = E. coli NCM3722 delta-smpB, growth: N-lim chemostat, doubling time 6 h
[5] = wild type E. coli NCM3722, growth: C-lim chemostat, doubling time 3 h
[6] = wild type E. coli NCM3722, growth: C-lim chemostat, doubling time 6 h
[7] = wild type E. coli NCM3722, growth: C-lim chemostat, doubling time 12 h
[8] = wild type E. coli NCM3722, growth: N-lim chemostat, doubling time 6 h
[9] = wild type E. coli NCM3722, growth: N-lim chemostat, doubling time 12 h
[10] = wild type E. coli NCM3722, growth: P-lim chemostat, doubling time 6 h
[11] = wild type E. coli NCM3722, growth: P-lim chemostat, doubling time 12 h
[12] = E. coli NCM3722 delta-clpP, growth: N-lim chemostat, doubling time 6 h

| Substance | total protein half-life in vivo [1] [h] | total protein half-life in vivo [2] [h] | total protein half-life in vivo [3] [h] | total protein half-life in vivo [4] [h] | total protein half-life in vivo [5] [h] | total protein half-life in vivo [6] [h] | total protein half-life in vivo [7] [h] | total protein half-life in vivo [8] [h] | total protein half-life in vivo [9] [h] | total protein half-life in vivo [10] [h] | total protein half-life in vivo [11] [h] | total protein half-life in vivo [12] [h] |
| --- | --- | --- | --- | --- | --- | --- | --- | --- | --- | --- | --- | --- |
| MIEIESRELADIPVLHAYPVGQKDTPLPCVIFYHGFTSSSLVYSYFAVALAQAGLRVIMPDAPDHGSRFSGDAARRLNQFWQILLQSMQEFTTLRAAIAEENWLLDDRLAVGGASMGAMTALGITARHPTVRCTASMMGSGYFTSLARSLFPPLIPETAAQQNEFNNIVAPLAEWEATNHLEQLSDRPLLLWHGLDDDVVPADESLRLQQALSETGRDKLLTCSWQPGVRHRITPEALDAAVTFFRQHL | 4.25 ± 0.61 | 4.061 ± 0.029 | 4.32 ± 0.38 | 3.95 ± 0.12 | 3.24 ± 0.097 | 5.72 ± 0.33 | 11 ± 0.45 | 4.11 ± 0.3 | 6.87 ± 0.64 | 5.95 ± 0.17 | 12.2 ± 0.79 | – |
| P0CK95 | – | – | – | – | 2.75 | – | – | – | – | 6.26 ± 0.39 | 13 ± 0.41 | – |
| MTDMNILDLFLKASLLVKLIMLILIGFSIASWAIIIQRTRILNAAAREAEAFEDKFWSGIELSRLYQESQGKRDNLTGSEQIFYSGFKEFVRLHRANSHAPEAVVEGASRAMRISMNRELENLETHIPFLGTVGSISPYIGLFGTVWGIMHAFIALGAVKQATLQMVAPGIAEALIATAIGLFAAIPAVMAYNRLNQRVNKLELNYDNFMEEFTAILHRQAFTVSESNKG [P0ABU9] | 5.8 ± 0.98 | 7.1 ± 0.95 | 6.83 ± 1.3 | 6.07 ± 0.051 | 3.13 ± 0.22 | 6.078 ± 0.021 | 11.9 ± 1.4 | 5.74 ± 0.16 | 11.6 ± 1.6 | 5.93 ± 0.14 | 12.7 ± 0.76 | 6.17 ± 0.19 |
| MLIGYVRVSTNDQNTDLQRNALNCAGCELIFEDKISGTKSERPGLKKLLRTLSAGDTLVVWKLDRLGRSMRHLVVLVEELRERGINFRSLTDSIDTSTPMGRFFFHVMGALAEMERELIVERTKAGLETARAQGRIGGRRPKLTPEQWAQAGRLIAAGTPRQKVAIIYDVGVSTLYKRFPAGDK | – | – | – | – | – | – | 5.3 | 6.47 | – | 6.11 | 12.2 ± 1.1 | 6.3 |
| MKLFYKPGACSLASHITLRESGKDFTLVSVDLMKKRLENGDDYFAVNPKGQVPALLLDDGTLLTEGVAIMQYLADSVPDRQLLAPVNSISRYKTIEWLNYIATELHKGFTPLFRPDTPEEYKPTVRAQLEKKLQYVNEALKDEHWICGQRFTIADAYLFTVLRWAYAVKLNLEGLEHIAAFMQRMAERPEVQDALSAEGLK [P0A9D2] | 4.9 ± 0.3 | 4.81 ± 0.22 | 6.34 ± 1.4 | 4.64 ± 0.58 | 2.84 ± 0.23 | 5.69 ± 0.32 | 11.6 ± 2.5 | 4.81 ± 0.2 | 9.9 ± 0.87 | 5.44 ± 0.29 | 10.6 ± 0.74 | 5.74 ± 1.9 |
| MPSAHSVKLRPLEREDLRYVHQLDNNASVMRYWFEEPYEAFVELSDLYDKHIHDQSERRFVVECDGEKAGLVELVEINHVHRRAEFQIIISPEYQGKGLATRAAKLAMDYGFTVLNLYKLYLIVDKENEKAIHIYRKLGFSVEGELMHEFFINGQYRNAIRMCIFQHQYLAEHKTPGQTLLKPTAQ [P0A951] | 5.494 ± 0.021 | 5.04 ± 1.1 | – | 5.16 ± 0.071 | 2.7 ± 0.18 | 5.17 ± 0.15 | 10.5 ± 0.81 | 4.92 ± 0.18 | 9.78 ± 1.9 | 5.06 ± 0.2 | 11.6 ± 0.61 | 6.01 ± 1.7 |
| MGKTQPLPILITGGGRRIGLALAWHFINQKQPVIVSYRTHYPAIDGLINAGAQCIQADFSTNDGVMAFADEVLKSTHGLRAILHNASAWMAEKPGAPLADVLACMMQIHVNTPYLLNHALERLLRGHGHAASDIIHFTDYVVERGSDKHIAYAASKAALDNMTRSFARKLAPEVKVNSIAPSLILFNEHDDAEYRQQALNKSLMKTAPGEKEVIDLVDYLLTSCFVTGRSFPLDGGRHLR [P0AFS3] | 5.23 ± 0.36 | 5.31 ± 0.45 | 5.6 ± 0.53 | 4.85 ± 0.43 | 3.124 ± 0.021 | 5.67 ± 0.13 | 11.5 ± 1 | 5.32 ± 0.17 | 9.17 ± 0.28 | 5.56 ± 0.12 | 12.3 ± 0.39 | 5.33 ± 1.2 |
| MHLSTHPTSYPTRYQEIAAKLEQELRQHYRCGDYLPAEQQLAARFEVNRHTLRRAIDQLVEKGWVQRRQGVGVLVLMRPFDYPLNAQARFSQNLLDQGSHPTSEKLLSVLRPASGHVADALGITEGENVIHLRTLRRVNGVALCLIDHYFADLTLWPTLQRFDSGSLHDFLREQTGIALRRSQTRISARRAQAKECQRLEIPNMSPLLCVRTLNHRDGESSPAEYSVSLTRADMIEFTMEH | – | – | – | – | – | 6.73 | – | – | – | 0.458 ± 0.023 | 1.54 ± 0.86 | – |
| MKTGSEFHVGIVGLGSMGMGAALSYVRAGLSTWGADLNSNACATLKEAGACGVSDNAATFAEKLDALLVLVVNAAQVKQVLFGETGVAQHLKPGTAVMVSSTIASADAQEIATALAGFDLEMLDAPVSGGAVKAANGEMTVMASGSDIAFERLAPVLEAVAGKVYRIGAEPGLGSTVKIIHQLLAGVHIAAGAEAMALAARAGIPLDVMYDVVTNAAGNSWMFENRMRHVVDGDYTPHSAVDIFVKDLGLVADTAKALHFPLPLASTALNMFTSASNAGYGKEDDSAVIKIFSGITLPGAKS | 5.94 | – | – | – | 0.261 | 0.509 | 1.69 ± 1.5 | – | – | – | – | – |
